Assay results taken from IntAct's records for PubMed 22115042.

What was measured:
[1] = target: dock3_mouse Dock3 (UniProt Q8CIQ7)
[2] = target: dock3_mouse Dock3 (UniProt Q8CIQ7); remark: listed apart in the source

Sequence of Presenilin-2 (Homo sapiens), P49810 N141I (P49810 whole entry N141I): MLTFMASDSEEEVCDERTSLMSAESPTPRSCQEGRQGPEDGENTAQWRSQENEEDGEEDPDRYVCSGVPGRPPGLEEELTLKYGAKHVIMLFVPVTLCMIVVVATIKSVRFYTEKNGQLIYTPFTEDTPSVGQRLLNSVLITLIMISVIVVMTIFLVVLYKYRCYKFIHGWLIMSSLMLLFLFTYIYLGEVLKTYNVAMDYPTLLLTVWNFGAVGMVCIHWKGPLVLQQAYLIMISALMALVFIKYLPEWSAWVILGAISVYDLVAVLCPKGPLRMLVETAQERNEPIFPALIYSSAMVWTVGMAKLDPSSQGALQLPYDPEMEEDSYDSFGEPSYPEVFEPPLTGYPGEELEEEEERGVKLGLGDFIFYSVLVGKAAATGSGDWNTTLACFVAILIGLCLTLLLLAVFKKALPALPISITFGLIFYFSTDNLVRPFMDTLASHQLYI

Row | effect of a mutation on the interaction [1] | effect of a mutation on the interaction [2] | Substance
1 | increasing interaction strength |  | Presenilin-1 (Homo sapiens) (from UniProt P49768) C410Y
2 | increasing interaction strength |  | Presenilin-1 (Homo sapiens) (from UniProt P49768) M146L
3 |  | with no effect | Presenilin-2 (Homo sapiens), P49810 N141I
